Experimental data as given in patent US20090208489A1 (Takeda / Millennium, published 2009).

T1: OV064(32-282) expressed on transfected ES-2 ovarian carcinoma cells (human, UniProt Q7Z7D3 32-282)
T1 sequence: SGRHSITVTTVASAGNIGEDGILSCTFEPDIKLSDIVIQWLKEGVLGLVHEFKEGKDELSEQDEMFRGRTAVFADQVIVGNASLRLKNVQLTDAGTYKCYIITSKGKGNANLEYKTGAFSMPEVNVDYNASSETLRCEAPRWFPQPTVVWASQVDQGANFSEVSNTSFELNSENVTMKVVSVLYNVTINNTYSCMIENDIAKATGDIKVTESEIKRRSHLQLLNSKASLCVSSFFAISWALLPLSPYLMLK

T2: OV064 peptide 157-176 (human)
T2 construct: 20-mer synthetic peptide on nitrocellulose; also called OV064 AA 157-176
T2 peptide: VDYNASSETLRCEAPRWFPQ

T3: OV064 peptide 162-181 (human)
T3 construct: 20-mer synthetic peptide on nitrocellulose; also called OV064 AA 162-181
T3 peptide: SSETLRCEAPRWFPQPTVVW

T4: OV064 peptide 167-186 (human)
T4 construct: 20-mer synthetic peptide on nitrocellulose; also called OV064 AA 167-186
T4 peptide: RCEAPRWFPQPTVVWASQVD

T5: OV064 peptide 172-191 (human)
T5 construct: 20-mer synthetic peptide on nitrocellulose; also called OV064 AA 172-191
T5 peptide: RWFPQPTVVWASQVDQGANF

T6: OV064 peptide 237-256 (human)
T6 construct: 20-mer synthetic peptide on nitrocellulose; also called OV064 AA 237-256
T6 peptide: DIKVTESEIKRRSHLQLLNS

T7: OV064 peptide 238-257 (human)
T7 construct: 20-mer synthetic peptide on nitrocellulose; also called OV064 AA 238-257
T7 peptide: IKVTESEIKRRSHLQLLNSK

T8: OV064 peptide 177-196 (human)
T8 construct: 20-mer synthetic peptide on nitrocellulose; also called OV064 AA 177-196
T8 peptide: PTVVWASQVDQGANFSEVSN


Tests used:
[1] = target: T1, OV064(32-282) expressed on transfected …; experiment: cell-based or functional assay
[2] = target: T1, OV064(32-282) expressed on transfected …; experiment: flow cytometry on OV064 expressing cells
Protocol: Analysis of mAb by flow cytometry. 50,000-100,000 test cells were prepared in 100 ul phosphate buffered saline+1% fetal bovine serum (PBSS). 50 ul of test reagent (either hybridoma supernatants, mouse serum or purified mAb) was added, and incubated 30-45 min on ice, then washed 2-3 times in PBSS. 50 ul of fluorescently labeled secondary antibody (Anti-Mouse IgG or Anti-Human IgG) was then added, and incubated 30-45 minutes on ice and washed. The cells were then resuspended in 300 ul of PBSS and analyzed by flow cytometer (FACSCalibur, Becton Dickinson) to assess amount of cell surface bound antibody.
Each human mAb (mAb sc77, mAb sc189, and mAb sc209) bound purified recombinant OV064-His fusion protein in ELISA analysis.

OV064 peptide 157-176 = target: T2, OV064 peptide 157-176; experiment: peptide array (20-mer on nitrocellulose)
Protocol: (§1) Epitope mapping. A variety of techniques are available to determine epitopes specific for any particular antibody. For example, constructs of OV064 truncations were generated in a pCMV3 vector. Constructs representing amino acids 32-282, 133-282, 167-282 and 183-282 of the OV064 protein sequence were generated as N-terminally FLAG tagged proteins that when transfected into 293 cells, will be expressed on the cell surface. OV064 specific antibodies sc077, sc189, sc209 an 8G5 were tested for binding to these expressed constructs by flow cytometry, as described above. Furthermore, epitopes were analyzed using the Novatope system (Novagen Inc). Briefly, OV064 cDNA was treated with DNAse and fragments representing 15-600 bp were cloned into a bacterial expression vector. Each mAb was tested against 2000 clones representing OV064 fragments and each positive clone was picked and sequenced. The minimal common sequence between each of these clones was designated as the epitope to which each antibody bound. Additionally, a synthetic peptide map was utilized for identifying anti-OV064 epitopes. Briefly, 20 amino acid peptides each overlapping with 15 amino acids were printed on a nitrocellulose filter and incubated with anti-OV064 specific antibodies. Peptide spots that reacted strongly with the OV064 specific antibodies indicated the presence of an OV064 epitope.
(§2) As described above in the methods, various approaches to determine epitope mapping of OV064 specific mAbs were used. […] The other methods confirmed the results depicted in Table 5.

OV064 peptide 162-181 = target: T3, OV064 peptide 162-181; experiment: peptide array (20-mer on nitrocellulose)
Protocol: as §1, §2

OV064 peptide 167-186 = target: T4, OV064 peptide 167-186; experiment: peptide array (20-mer on nitrocellulose)
Protocol: as §1, §2

OV064 peptide 172-191 = target: T5, OV064 peptide 172-191; experiment: peptide array (20-mer on nitrocellulose)
Protocol: as §1, §2

OV064 peptide 237-256 = target: T6, OV064 peptide 237-256; experiment: peptide array (20-mer on nitrocellulose)
Protocol: as §1, §2

OV064 peptide 238-257 = target: T7, OV064 peptide 238-257; experiment: peptide array (20-mer on nitrocellulose)
Protocol: as §1, §2

OV064 peptide 177-196 = target: T8, OV064 peptide 177-196; experiment: peptide array (20-mer on nitrocellulose)
Protocol: as §1, §2

Row | Binder | ICA (EC50) [1] [pM] | FCM (MFI max) [2] [MFI] | binding result (OV064 peptide 157-176) | binding result (OV064 peptide 162-181) | binding result (OV064 peptide 167-186) | binding result (OV064 peptide 172-191) | binding result (OV064 peptide 237-256) | binding result (OV064 peptide 238-257) | binding result (OV064 peptide 177-196)
1 | human monoclonal antibody mAb sc77 (antibody, human IgG1, kappa, V domains shown, Human IgG1 kappa; also called sc077; Ov64sc77) VH: QVQLVESGGGVVQPGRSLRLSCAASGFTFSSYGMHWVRQAPGKGLEWVAVIWYDGNNKYYADSVKGRFTISRDNSKNTLYLQMNSLRAEDTAVYYCARTSGIAAFDYWGQGTLVTVSS VL: not shown | 123 | 780 | binds | binds | binds | binds |  |  | 
2 | human monoclonal antibody mAb sc189 (antibody, human IgG1, kappa, V domains shown, Human IgG1 kappa; also called Ov64sc189) VH: EVQLVESGGGLVQPGGSLRLSCAASGFSFSSYDMHWVRQATGKGLEWVSGIDIAGDTYYPGSVKGRFTISRENAKNSLYLQMNSLRAGDTAVYYCARGDYDGTFDYWGQGTLVTVSS VL: DIVMTQTPLSSPVTLGQPASISCRSSQSLVHSDGNTYLSWLQQRPGQPLRLLFYKISNRFSGVPDRFSGSGAGTDFTLIINRVEAEDVGVYYCMHATQFPITFGQGTRLEIKR | 60 | 820 |  |  |  |  | binds | binds | 
3 | human monoclonal antibody mAb sc209 (antibody, human IgG1, kappa, V domains shown, Human IgG1 kappa; also called Ov64sc209) VH: GVQLVESGGGLVQPGGSLRLSCAASGFTISRNDMHWVRQATGKGLEWVSAIGTGGDTYYPGSVKGRFTISRENAKNSLYLQMNSLRAGDTAVYYCARGHMTTFGGFIVIGNGMDVWGQGTTVTVSS VL: not shown | 53 | 700 | binds | binds | binds | binds |  |  | binds
